Reference: publication PMC7854685, “Histone Parylation factor 1 contributes to the inhibition of PARP1 by cancer drugs” (Nature Communications, 2021)
Substitutions are numbered along the chain they refer to. Names and notes keep the numbering of the source. Values joined by “and” are separate entries in the source; they are usually repeats but may differ in a detail not shown here. Equal values may be shown once. “Also recorded” adds a separate entry of the source. Read-outs that look alike come from different tables or passages of the source.

B1: HPF1: Histone PARylation factor, protein that binds PARP1 and PARP2 and provides the catalytic base Glu284 (protein)
chain: LRKEVENHYKLSLPEDFYHFWKFCEELDPEKPSDSLSASLGLQLVGPYDILAGKHKTKKKSTGLNFNLHWRFYYDPPEFQTIIIGDNKTQYHMGYFRDSPDEFPVYVGINEAKKNCIIVPNGDNVFAAVKLFLTKKLREITDKKKINLLKNIDEKLTEAARELGYSLEQRTVKMKQRDKKVVTKTFHGAGLVVPVDKNDVGYRELPETDADLKRICKTIVEAASDEERLKAFAPIQEMMTFVQFANDECDYGMGLELGMDLFCYGSHYFHKVAGQLLPLAYNLLKRNLFAEIIEEHLANRSQENIDQLAA
modifications: Alexa647 C2 maleimide label (extent of labeling typically 50-100%); left off: His tag (inferred from the nickel affinity column), end not stated, state not stated
B2: F280A mutant of HPF1: F280A mutant of HPF1 (protein)
chain: B1 chain with F244A

Key:
[1] = biological target: T1, PARP1 (Homo sapiens, UniProt P09874); assay: Rate of autoPARylation k2[NAD+] (DNA release without PARPi) in presence or absence of HPF1; assay type: biochemical
T1 construct: Wild-type PARP1 and PARP2 were expressed and purified as previously described; made in house
T1 sequence (P09874 whole entry): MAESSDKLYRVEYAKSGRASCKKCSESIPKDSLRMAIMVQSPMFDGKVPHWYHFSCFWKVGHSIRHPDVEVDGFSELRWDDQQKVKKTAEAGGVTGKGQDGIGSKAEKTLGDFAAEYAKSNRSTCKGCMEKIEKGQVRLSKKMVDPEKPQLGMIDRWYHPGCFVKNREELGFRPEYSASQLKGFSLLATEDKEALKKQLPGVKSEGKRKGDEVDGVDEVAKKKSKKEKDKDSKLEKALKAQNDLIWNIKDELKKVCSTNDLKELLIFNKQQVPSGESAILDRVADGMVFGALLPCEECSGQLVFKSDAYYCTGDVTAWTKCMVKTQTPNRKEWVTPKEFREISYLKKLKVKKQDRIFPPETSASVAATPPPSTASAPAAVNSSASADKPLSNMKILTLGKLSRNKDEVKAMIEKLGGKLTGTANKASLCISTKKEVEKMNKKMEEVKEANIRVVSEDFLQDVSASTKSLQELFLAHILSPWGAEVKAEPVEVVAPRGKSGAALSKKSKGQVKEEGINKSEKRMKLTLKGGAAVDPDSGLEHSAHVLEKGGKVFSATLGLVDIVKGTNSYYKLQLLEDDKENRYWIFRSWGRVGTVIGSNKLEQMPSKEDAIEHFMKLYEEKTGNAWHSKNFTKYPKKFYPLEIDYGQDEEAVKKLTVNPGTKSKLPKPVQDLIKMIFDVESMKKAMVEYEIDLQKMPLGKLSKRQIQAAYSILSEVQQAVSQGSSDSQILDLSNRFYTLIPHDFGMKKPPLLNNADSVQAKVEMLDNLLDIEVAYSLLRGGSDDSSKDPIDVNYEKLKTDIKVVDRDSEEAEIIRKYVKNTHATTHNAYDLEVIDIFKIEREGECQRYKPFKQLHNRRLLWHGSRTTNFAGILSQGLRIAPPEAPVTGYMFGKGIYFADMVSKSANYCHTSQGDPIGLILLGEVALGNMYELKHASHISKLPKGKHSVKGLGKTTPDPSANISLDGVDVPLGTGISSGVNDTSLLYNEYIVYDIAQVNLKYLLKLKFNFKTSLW
Procedure: (§1) Next, 10 µL of PARP1 or PARP2 (10 nM) premixed with fluorescein labeled p18mer DNA (5 nM), was added to the various dilutions of PARPi and then incubated for 30 min to ensure complete association. Dissociation of labeled DNA was initiated by addition of 10 µL of NAD^+ (2 mM). All concentrations cited are final concentrations in a volume of 30 µL. […] Kinetic data for a range of different PARPi (20–500 nM) were exported to Prism (GraphPad) and were globally fitted to individual exponentials1 y=y0−y∞*e^−kobsx+y0 with the constraints that y0 (the value of the FP signal at t = 0) and y∞ (the value of the FP signal at t = ∞) are shared for all concentrations of PARPi. […] We emphasize that the same correction is applied to the data for all PARPi.

[2] = biological target: T2, PARP2 (Homo sapiens, UniProt Q9UGN5); assay: as above; assay type: biochemical
T2 construct: Wild-type PARP1 and PARP2 were expressed and purified as previously described; made in house
T2 sequence (Q9UGN5 whole entry): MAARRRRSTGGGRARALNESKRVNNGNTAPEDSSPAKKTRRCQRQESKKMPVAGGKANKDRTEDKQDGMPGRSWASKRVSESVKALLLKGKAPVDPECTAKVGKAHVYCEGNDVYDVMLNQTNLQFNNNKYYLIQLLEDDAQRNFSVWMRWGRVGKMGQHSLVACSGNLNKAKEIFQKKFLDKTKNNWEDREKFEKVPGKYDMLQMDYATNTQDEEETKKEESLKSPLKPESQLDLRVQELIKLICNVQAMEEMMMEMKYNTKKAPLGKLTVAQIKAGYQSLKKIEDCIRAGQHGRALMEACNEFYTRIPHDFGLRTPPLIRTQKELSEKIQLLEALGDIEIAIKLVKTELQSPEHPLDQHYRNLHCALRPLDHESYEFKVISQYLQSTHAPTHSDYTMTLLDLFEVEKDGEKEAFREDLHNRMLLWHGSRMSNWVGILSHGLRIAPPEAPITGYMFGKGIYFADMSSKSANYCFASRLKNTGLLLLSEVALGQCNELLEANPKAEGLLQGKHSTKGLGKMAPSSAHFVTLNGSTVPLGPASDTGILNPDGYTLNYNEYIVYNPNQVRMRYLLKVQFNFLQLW
Procedure: as §1

[3] = biological target: PARP1 - Nuc165 / PARP1 - p18mer complex (Homo sapiens, UniProt P09874); assay: FRET assay of Alexa647-HPF1 binding to Alexa488-PARP1 with p18mer DNA or Nuc165, with or without olaparib; conditions: for Kd: read-out: KD of HPF1
PARP1 - Nuc165 / PARP1 - p18mer complex, sequence (P09874 whole entry): as the sequence (P09874 whole entry) above
PARP1 - Nuc165 / PARP1 - p18mer complex, sequence (Q9NWY4 whole entry partner): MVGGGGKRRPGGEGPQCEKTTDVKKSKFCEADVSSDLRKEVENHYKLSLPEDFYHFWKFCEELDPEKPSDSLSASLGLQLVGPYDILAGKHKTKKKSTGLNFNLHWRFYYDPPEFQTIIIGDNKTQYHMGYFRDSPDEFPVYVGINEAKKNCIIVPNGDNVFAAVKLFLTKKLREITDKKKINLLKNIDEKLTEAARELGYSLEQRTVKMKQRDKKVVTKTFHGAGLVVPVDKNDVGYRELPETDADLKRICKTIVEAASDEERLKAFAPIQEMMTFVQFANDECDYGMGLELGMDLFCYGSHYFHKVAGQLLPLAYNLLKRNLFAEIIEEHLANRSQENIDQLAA
Procedure: Excess unincorporated dye from PARP1 was removed by gel filtration chromatography (S-200). The extent of labeling, defined as the ratio of the molar concentration of dye vs. protein, was determined by UV-Vis spectroscopy and was typically 50–100%. […] All concentrations reflect final concentrations in the plate and all samples were diluted in binding buffer. […] Raw fluorescence intensity values were used to correct the FRET signal for the donor bleed-through and for the acceptor direct excitation, as previously described[43].

Molecule	kobs (individual replicates) ([1]; PARP1 +HPF1, no PARPi)	kobs(+HPF1) ([1]; PARP1, no PARPi, 2 mM NAD+) [s⁻¹]	kobs ([2]; PARP2 + HPF1, replicate fits of the fluorescence polarization time traces (time in s) of sheet SuppFig4CD)	kobs(+HPF1) ([2]; PARP2, no PARPi, 2 mM NAD+) [s⁻¹]	factor tighter binding to PARP1—Nuc165 than to PARP1—p18mer ([3]; no olaparib)	Kd ([3]; PARP1 – p18mer complex, in the presence of olaparib (1 µM)) [nM]	Kd ([3]; PARP1—Nuc165 complex, in the presence of olaparib (1 µM)) [nM]	Kd ([3]; PARP1—Nuc165 complex, no olaparib) [nM]	binding to PARP1 – Nuc165 complex ([3]; FRET)
B1	0.019 and 0.025 and 0.031	0.025 ± 0.006	0.09827 and 0.07689 and 0.09446	0.090 ± 0.011	5	1200 ± 500	229 ± 55	790 ± 147	
B2									does not bind; also recorded: failed to bind
